Assay results as given in patent US6051396.

How the values were obtained:
[1] = molecular target: T1, trpE-RB23-27 fusion (Homo sapiens) (UniProt P06400); settings: Southwestern blot; stated as RB19-27 having 20-fold higher affinity; 50 mM NaCl, pH 7.0, room temperature
T1 sequence: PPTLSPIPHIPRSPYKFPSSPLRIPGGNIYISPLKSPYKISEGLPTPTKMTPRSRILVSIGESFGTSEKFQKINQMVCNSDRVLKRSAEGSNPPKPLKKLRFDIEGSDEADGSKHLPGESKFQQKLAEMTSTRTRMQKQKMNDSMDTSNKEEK

[2] = molecular target: T2, trpE-RB19-22 fusion (Homo sapiens) (UniProt P06400); settings: Southwestern blot; stated as RB19-27 having 20-fold higher affinity; 50 mM NaCl, pH 7.0, room temperature
T2 sequence: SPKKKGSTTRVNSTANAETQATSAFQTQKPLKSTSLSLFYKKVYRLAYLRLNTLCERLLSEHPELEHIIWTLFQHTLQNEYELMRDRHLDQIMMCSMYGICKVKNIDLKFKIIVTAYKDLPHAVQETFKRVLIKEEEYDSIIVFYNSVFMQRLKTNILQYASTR

[3] = molecular target: T3, trpE-RB19-27 fusion (Homo sapiens) (UniProt P06400); settings: Southwestern blot; 20-fold higher affinity than either subregion; 50 mM NaCl, pH 7.0, room temperature
T3 sequence: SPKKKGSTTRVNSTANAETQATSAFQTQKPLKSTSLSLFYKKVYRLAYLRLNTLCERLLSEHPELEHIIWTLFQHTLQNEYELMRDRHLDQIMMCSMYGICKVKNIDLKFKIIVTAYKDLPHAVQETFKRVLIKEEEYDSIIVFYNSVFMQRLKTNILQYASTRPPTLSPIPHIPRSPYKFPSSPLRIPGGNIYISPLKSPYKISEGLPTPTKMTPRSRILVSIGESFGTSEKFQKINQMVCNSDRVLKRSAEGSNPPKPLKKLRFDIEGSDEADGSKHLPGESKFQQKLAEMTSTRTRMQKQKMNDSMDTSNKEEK

In the case of “pGEM1 plasmid DNA linearized by EcoRI, random-primed probe”, the binding signal (fraction of RB19-27) [1] is reported as 0.05, the binding signal (fraction of RB19-27) [2] is reported as 0.05 and the binding signal (fold vs RB19-22 or RB23-27) [3] is reported as 20.
